Laboratory results as given in patent US20050170434.

Target: p38 MAPK, Q16539
Sequence (Q16539 2-360): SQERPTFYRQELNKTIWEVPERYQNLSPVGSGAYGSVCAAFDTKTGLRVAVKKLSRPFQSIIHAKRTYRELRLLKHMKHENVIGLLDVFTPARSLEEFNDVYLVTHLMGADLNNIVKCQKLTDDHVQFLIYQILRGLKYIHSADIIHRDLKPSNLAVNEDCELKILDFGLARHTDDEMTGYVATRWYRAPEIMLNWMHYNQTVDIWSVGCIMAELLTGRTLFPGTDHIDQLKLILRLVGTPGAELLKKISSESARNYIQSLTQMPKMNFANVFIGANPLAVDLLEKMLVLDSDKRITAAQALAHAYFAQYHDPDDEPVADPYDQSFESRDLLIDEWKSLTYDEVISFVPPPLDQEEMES

B1: MKK3b (WT) (protein)
chain: MESPASSQPASMPQSKGKSKRKKDLRISCMSKPPAPNPTPPRNLDSRTFITIGDRNFEVEADDLVTISELGRGAYGVVEKVRHAQSGTIMAVKRIRATVNSQEQKRLLMDLDINMRTVDCFYTVTFYGALFREGDVWICMELMDTSLDKFYRKVLDKNMTIPEDILGEIAVSIVRALEHLHSKLSVIHRDVKPSNVLINKEGHVKMCDFGISGYLVDSVAKTMDAGCKPYMAPERINPELNQKGYNVKSDVWSLGITMIEMAILRFPYESWGTPFQQLKQVVEEPSPQLPADRFSPEFVDFTAQCLRKNPAERMSYLELMEHPFFTLHKTKKTDIAAFVKEILGEDS
p38 phosphorylation (western blot using anti-phospho-p38 antibodies): in MKK3b (WT)-infected cells, the basal level of phosphorylated p38 protein dramatically increased compared with the basal level in cells infected with vector (TICD8)
